The values that follow come from US20160122432A1 (INSERM INSTITUT NATIONAL DE LA SANTE ET DE LA RECHERCHE …, published 2016).

The test has as its target T1, human HER2 receptor (human, UniProt P04626 23-1255).
T1 construct: whole, on cells; Endogenous HER2 on human cancer cell lines; also called Human Epidermal Growth Factor Receptor 2; Neu
Briefly: flow cytometry, biotinylated antibody titrated on SK-BR-3 cells, PE-streptavidin, apparent affinity. The source says:
After a washing step, bound antibodies were detected using PE-labeled streptavidin and analyzed by FACS. The inverse of the fluorescence was plotted as a function of the inverse of antibody concentration.
(In general: Flow cytometry measures light scatter and fluorescence of single cells or particles in a stream.)

B1: HER2.C7b sdAb (VHH, not shown: small tags and cut ends)
VHH: QVQLVQSGGGLVQAGGSLRLSCAASGRTFSSYAMAWFRQAPGKEREFVAAISWSGANIYVADSVKGRFTISRDNAKDTVYLQMNSLKPEDTAVYYCAVKLGFAPVEERQYDYWGQGTQVTVSS
modifications: biotinylated in vitro (Ez-link micro NHS-PEO4-biotinylation kit) for the affinity determination; sites not stated
notes: also called sdAb HER2.C7b; anti HER2 sdAb HER2.C7b
On to B1, for which the Kd stood at 51.6 nM.

B2: HER2.C7b-Fc (Fc fusion)
chain: QVQLVQSGGGLVQAGGSLRLSCAASGRTFSSYAMAWFRQAPGKEREFVAAISWSGANIYVADSVKGRFTISRDNAKDTVYLQMNSLKPEDTAVYYCAVKLGFAPVEERQYDYWGQGTQVTVSS
modifications: biotinylated in vitro for the affinity determination; sites not stated
notes: Bivalent for HER2: two HER2.C7b sdAb fused to the constant part of human IgG1; also called Sdab HER2.C7b-Fc; aHER2.C7b-Fc; not shown: hinge, CH1 and CH2 domains of a human IgG1 (so in the source)
B2: the Kd stood at 2.9 nM.
